Laboratory results: patent US20030022263A1 (ST JUDE CHILDREN S RESEARCH HOSPITAL, published 2003)

Biological target: T1, endogenous eIF-4E of mouse fibroblasts (mouse, UniProt P63073 2-217)
T1 construct: mature
Assay: eIF-4E captured on a methyl-G column from mouse fibroblast lysates, Western blot for both proteins
Method: Fibroblasts from normal or AT mice were treated with (+) or without (−) insulin and total cellular and complexed eIF-4E and 4E-BP1 were examined by Western blot. […] The amount of 4E-BP1 bound to eIF-4E was examined by immunoprecipitating eIF-4E with a methyl-G column and then blotting for both proteins.

T1 sequence (P63073 2-217): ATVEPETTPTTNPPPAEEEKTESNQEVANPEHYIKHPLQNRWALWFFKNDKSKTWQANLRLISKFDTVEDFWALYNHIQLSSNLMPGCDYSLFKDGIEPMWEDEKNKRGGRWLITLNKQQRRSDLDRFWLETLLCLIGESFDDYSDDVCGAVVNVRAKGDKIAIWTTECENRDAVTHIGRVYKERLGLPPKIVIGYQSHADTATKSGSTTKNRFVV

B1: endogenous 4E-BP1 of mouse fibroblasts (other, UniProt Q60876 2-117, looked up)
chain: SAGSSCSQTPSRAIPTRRVALGDGVQLPPGDYSTTPGGTLFSTTPGGTRIIYDRKFLMECRNSPVAKTPPKDLPAIPGVTSPTSDEPPMQASQSQLPSSPEDKRAGGEESQFEMDI
notes: mature
- binding result: binds
